± gives the uncertainty stated by the source.

The data set can be described thus: amyloid nucleation score (Sup35N fusion, yeast selection) (log enrichment); library NNK3; higher = more nucleation; inactive = no reads after selection. The procedure, abridged: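 Nucleation score is defined as the DiMSum log enrichment of output over input reads, with centring on the mode score of non-aggregating sequences. A minimum of 100 input reads was required for each sequence. Reads came from Illumina sequencing of plasmid inserts from psi-negative yeast expressing Sup35N fused to peptides of 20 random codons, induced with 100 μM copper sulfate for 24 hours and grown 7 days at 30°C on medium lacking adenine and uracil.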
On to SFYWMHMSAMIEYDPFTYGA, for which the amyloid nucleation score result was “inactive”.
In the case of FRFASYRSYLIVMP it was “inactive”.
The same measure for ANELERYYVMCFW: 1.64 ± 0.099; for KDYLLSSYCEECHDHSSSEL: “inactive”; for LYREFVWMEVCVCRWG: “inactive”.
The same measure for YLGGFLWVWKQFSSCRLVQY: -0.057 ± 0.78; for IHHQC: “inactive”; for IDLRVTRNIFQSATLLMFFW: “inactive”.
For the substance SCCCDFYTTRKNQRCVHRFR, the amyloid nucleation score entry is “inactive”.
In the case of SKLKATRTRL it was “inactive”; in that of EVYFKMAQPLLHWDYERMQV, “inactive”.
Take DEYTSNVVSNFFEIRLWFFI: the amyloid nucleation score entry is “inactive”.
In the case of LCYCLKAVDYRLNFFHKWRH it was “inactive”; in that of SSANVDMPVDCDTRWTCW, “inactive”; in that of DCERVFSYMRKDQVPPVTLS, “inactive”.
For the substance HIYIVKSVCILCIWPCGLTE, the amyloid nucleation score was determined as 2.86 ± 0.058.
The same measure for TQDGELV: “inactive”; for LFMGCPVEV: -0.515 ± 0.62.
The same measure for GWSQYGACRVGVWGYRAPYN: “inactive”; for KISAIVSYPAYVIIVHRLWH: “inactive”.
In the case of NHVTVYVI it was 0.555 ± 0.29.
FLRGLVK: the amyloid nucleation score entry is “inactive”.
Turning to SDRNSEGLTLF, the amyloid nucleation score entry is “inactive”.
Take YSIISSYTFEFSKFAVLALL: the amyloid nucleation score entry was “inactive”.
The same measure for FIVPWLFICRVVRNCVDSAV: “inactive”.
For GIFSRPFRAGRGRVIHNGPD, the amyloid nucleation score entry was “inactive”.
In the case of TWWCLN, the amyloid nucleation score entry is “inactive”.
In the case of SIKLGFYIIIFDLWYSPMMV it was “inactive”; in that of HSLLMCSMLLRFYVQYPICI, “inactive”; in that of QQRHMLS, 0.294 ± 0.25.
In the case of AQNSDHMSKATVH it was “inactive”.
As to ITWTRGDVGQTHNSAMLSHT, the amyloid nucleation score result is “inactive”.
The same measure for NQCAS: “inactive”; for NFLKSG: “inactive”.
The same measure for FNDLSAVFYLQGLKLDL: “inactive”.
Consider LFGFLYFVV, for which the amyloid nucleation score was -0.564 ± 0.82.
In the case of INNASRRPCNMHVDVYRLLR it was “inactive”.
Regarding HAGNWPSGSGRMSATRRFGW, the amyloid nucleation score result is “inactive”.
In turn, LRGFKEVTTRLKVRLQLGM yielded an amyloid nucleation score of -0.731 ± 1.3.
In the case of SREIYSMVMQSHLVQWGVIA, the amyloid nucleation score result was “inactive”.
In the case of VKSRNENIDPGCWRLELAPF it was “inactive”.
In the case of MHSGFNRFSTYCRKVGGSYR, the amyloid nucleation score entry was “inactive”.
In turn, LMRNRFFNPVSGTFTASIGQ had an amyloid nucleation score of -0.302 ± 1.1.
The same measure for TATWSFNVT: “inactive”; for TCLLMSPVFMVYFLLKTMNS: “inactive”; for ICMYRRLRISCVLAYRFRHF: “inactive”.
For LNFVWNFNWLYWFLYGIERV, the amyloid nucleation score entry is “inactive”.
The same measure for KLFYQMILYRNG: “inactive”.
NLVACIVNTCYL yielded an amyloid nucleation score of 1.52 ± 0.14.
Take LIRTARSLYWAYVHLAVSWR: the amyloid nucleation score entry was “inactive”.
In the case of YGCFVPY, the amyloid nucleation score entry was “inactive”.
As for VPPFTLTSVVYLSFCVCGGD, the amyloid nucleation score stood at 0.701 ± 0.13.
SAVRGRCVLYGNRPLIHVRK: the amyloid nucleation score entry was “inactive”.
In the case of LGCRYFHYAILNPHQLDKIG it was “inactive”.
In the case of RMLTHKQIIIRTVWTQYVYI it was “inactive”; in that of KCLGFHKHGALFTAYWGQTS, “inactive”; in that of PYSTFLLCQGLTNYMYSSMS, “inactive”.
As to KVWCKMLISSFIWMYVSE, the amyloid nucleation score result is “inactive”.
Regarding RISYKVRHTSNLVKTWCYTW, the amyloid nucleation score entry is “inactive”.
As to CFCYSLDSLLQVGNNS, the amyloid nucleation score result was “inactive”.
In the case of CNYSVVFCCNFWDYYLKECA it was 2.5 ± 0.06; in that of LLVYAVENPGLVWNSRHGLF, -1.37 ± 2.5.
YCGWLCSSPPVQNV: the amyloid nucleation score result was “inactive”.
The same measure for CFYVSLCGV: 0.259 ± 0.49; for STTHEYDI: “inactive”; for LGITNGRL: “inactive”.
In turn, ACESCSFTSWRTYLCSKVRT returned an amyloid nucleation score of -0.172 ± 1.5.
The same measure for NRYLVVLRSCS: “inactive”; for TDSNYNFNC: 0.214 ± 0.34; for VSNMGSMIVVVSVRCYM: 1.45 ± 0.094.
The same measure for IWTTPHVCPNLMMSARGCRL: “inactive”; for SSALRMYVCSAWG: “inactive”.
The same measure for IALVMSIDVAVVLMYPSPQW: 0.381 ± 0.24; for ILISMEPPLFRDTLKNTGNC: “inactive”.
As to WNAYVHTNNV, the amyloid nucleation score entry was “inactive”.
The same measure for AFWSH: “inactive”; for NYLRSVLMASGWYWILCIHF: “inactive”; for QGVCWLVV: “inactive”.
Turning to LGIQYLDETHCPKSTSKGFS, the amyloid nucleation score result is “inactive”.
For the substance IEVGYITWKSARVWATNSSH, the amyloid nucleation score entry is “inactive”.
In the case of LDLNVIDRGWTPGTGTVQRM, the amyloid nucleation score entry is “inactive”.
The same measure for GFRKWKLIVD: “inactive”.
In the case of RNVQLMVPFTAGVLWVLQCK it was “inactive”.
Consider RILRVRF, for which the amyloid nucleation score result was “inactive”.
In the case of YFNLITAYKVLSAHGRTLWR it was “inactive”; in that of CRLANHLEIAVAVTSYEGED, “inactive”; in that of VKYDDSWYDDWHIYNVYRCK, “inactive”.
In the case of LLNTRGSRVMLLGHRLFDN it was “inactive”.
In the case of RFVTSLYDMLSI it was “inactive”.
On to FCFQAFF, for which the amyloid nucleation score entry is “inactive”.
The same measure for TNQQYGSLGFISTSGIILLF: “inactive”; for SENSRRSLSAYFLQYGLWFW: “inactive”.
For the substance RKYGTLCKGCVL, the amyloid nucleation score entry was “inactive”.
The same measure for GGLSL: “inactive”; for IGSSRIDFSSRNYGV: 0.576 ± 0.12; for YSVPCSWWTLQLGILPLSRR: “inactive”.
Turning to DDDLHWWKYRCVACDSLWEI, the amyloid nucleation score result was “inactive”.
The substance FFLSTTGSMPHFPFKVSSSF came in with an amyloid nucleation score of 0.088 ± 0.24.
The same measure for QCQFYTSMMSAR: “inactive”.
In the case of LLTARTITSCKQWPGTSRYT it was “inactive”.
The same measure for MIDDYRECSYIYF: “inactive”.
Turning to FKLDSMCRLKRAAN, the amyloid nucleation score result was “inactive”.
LGRCDVIVKEFVTIIA: the amyloid nucleation score entry is “inactive”.
The same measure for DWTWMMS: “inactive”; for DSCTEVFVKGVTRSVIVGKG: “inactive”; for LFDFHSSCKSAVIAYLLSRR: 0.138 ± 0.47.
With IRYLYLV, the amyloid nucleation score result was “inactive”.
As to TLVGFRALKYIRWTCLAHRF, the amyloid nucleation score entry was “inactive”.
In the case of LVLSWWYMMFFRFDGV it was “inactive”.
Regarding VGSITVRLWYILECGEEVDC, the amyloid nucleation score result was “inactive”.
The same measure for SRRVNFLPVVFQHMTWLVLV: “inactive”; for AQSGVPRGAPGLAFDSVPHK: “inactive”; for VFFFMNQSRRDRIE: 1.72 ± 0.11.
In the case of WDVTNLAGFLNDPVSLKLS it was “inactive”; in that of EGGCYSPKHG, 0.741 ± 0.28.
In the case of HMIGRCLVGIESYRW it was “inactive”; in that of QWSGDDTT, 0.368 ± 0.22.
Take RDCCYLTFALVPSHGLLKVK: the amyloid nucleation score result was “inactive”.
In the case of NCWVNKIDVFLAESSMQCKA it was “inactive”; in that of LSPSVFVNSNRLMTESSRGF, “inactive”.
As for SRIAFKVDFASCRARMCGVE, the amyloid nucleation score result is “inactive”.
In the case of MFGRYSLLDILPLNMIRGNI, the amyloid nucleation score entry is “inactive”.
As for FFILFMRRLDW, the amyloid nucleation score was 0.323 ± 0.22.
Regarding GLLRTLSQDMTCGRDAGQGN, the amyloid nucleation score result was “inactive”.
In the case of TICLDLLDWEVEGPYNVVSG, the amyloid nucleation score result is “inactive”.
For IVADAAWNAIGVSGMDSTGT, the amyloid nucleation score result is “inactive”.
In the case of GRIEKVVRNA it was “inactive”.
FEIECNNGSGASTRLTSRIN: the amyloid nucleation score entry is “inactive”.
For the substance YYGGVLVSHRKPSGVCYGYG, the amyloid nucleation score entry was “inactive”.
In the case of LVVLLFVFI, the amyloid nucleation score result is “inactive”.
The same measure for RASFVLRCFKIDDVVVQFHL: 1.23 ± 0.15.
As to RYLGWFLKCTACRDHSEFII, the amyloid nucleation score result was “inactive”.
Turning to SFCYN, the amyloid nucleation score entry is “inactive”.

For the origin of these results see the supplement of paper PMC12042874.
